# What was measured:
# [1] = substrate: O=[N+]([O-])c1ccc(O[C@@H]2O[C@H](CO)[C@@H](O)[C@H](O)[C@H]2O)cc1; test: BG kinetics, pNPG hydrolysis assay with glucose as competitive inhibitor, yEdQ745-BG; assay type: biochemical, Aspergillus niger; conditions: other: pNPG substrate, pH 5.0, 50° C.
# From the text: (§1) Accordingly, in some embodiments, the unmodified form of the beta-glucosidase is a wild-type or a naturally occurring beta-glucosidase, such as, for example, a fungal beta-glucosidase. The full nucleic acid and amino acid sequence for numerous fungal beta-glucosidases are available. The amino acid sequence of A. niger beta-glucosidase is provided as SEQ ID NO:2. Thus, in some embodiments, the unmodified beta-glucosidase is from an Aspergillus species. In some embodiments, the unmodified beta-glucosidase is from a Trichoderma species.
# (§2) The beta-glucosidase (BG) gene from Aspergillus niger (Accession #CAB75696.1) was integrated into the TR3 yeast background at the T4U3 genomic site.
# (§3) The BG-expressing strains were subsequently used in corn mash and corn stover simultaneous saccharification and fermentation (SSF) studies using flask scale and pilot plant fermentations. A 12-gallon corn stover fermentation was performed at 40° C. in which the beta-glucosidase secreting yeast strain was co-inoculated with three other engineered yeast strains individually expressing endoglucanase II, CBH1, and CBHII. Surviving TR3 Saccharomyces cerevisiae yeast strains individually expressing BG, EGII, CBH1 or CBH2 were recovered by plating onto solid medium. A clonal population of BG-secreting yeast was isolated and the BG gene integration confirmed. This strain is referred to herein as yEdQ745 and comprises the wild-type BG gene. The BG sequence in the Tau3 integration cassette was used for subsequent mutagenesis experiments.
# (§4) The kinetic properties of beta glucosidase are important for cellulosic hydrolysis, since in commercial situations a wide range of substrate concentrations and different product inhibition conditions will be encountered. In this example, a Michaelis-Menten kinetics model was used to describe BG kinetics. To determine these kinetic properties, BG activity assays using standard substrates pNPG and cellobiose were employed. yEdQ745-BG (wild type) and yEdQ885-BG (improved), were compared with two commercial BGs, A-BG (Accellerase®) BG from Dupont) and S-BG (Novozymes SP188 from Sigma).
# BG activity assay using pNPG is one of the two commonly used standard assays to measure BG activity, which utilizes hydrolysis of p-nitrophenyl-β-D-glucopyranoside (pNPG) by BG into a yellow colored product, p-nitrophenol (pNP), that has a strong absorbance at 405 nm. One pNPG unit is defined as the amount of enzyme that produces 1 μmol of pNP per min. […] The reaction was then terminated by adding 100 μL of 0.25 M sodium carbonate, and the amount of pNP produced was determined by measuring absorbance at 405 nm using a predetermined calibration curve. […]
# [2] = substrate: OC[C@H]1O[C@@H](O[C@H]2[C@H](O)[C@@H](O)C(O)O[C@@H]2CO)[C@H](O)[C@@H](O)[C@@H]1O; test: BG kinetics, cellobiose hydrolysis assay (HPLC) with glucose as competitive inhibitor, yEdQ745-BG; assay type: biochemical, Aspergillus niger; conditions: other: cellobiose substrate, pH 4.8, 50° C.
# From the text: as §1, §2, §3, §4
# BG activity assay using cellobiose is the other standard assay to measure BG or cellobiase activity, which utilizes hydrolysis of cellobiose by cellobiase into two molecules of glucose, the last step of enzymatic hydrolysis of cellulose. One cellobiase unit (commonly termed as CBU) is defined as the amount of enzyme that converts […] of cellobiose or produces 2 μmol of glucose per min. Briefly, to determine BG activity, 25 μL of diluted enzyme in 50 mM citrate buffer (pH 4.8) equilibrated to 50° C. was mixed with 25 μL cellobiose (or cellobiose/glucose mixture for the kinetic study) to start the reaction. […]
protein,measurement,setting,value
"Aspergillus niger beta-glucosidase, wild type, yEdQ745-BG (CAB75696.1, SEQ ID NO:2) (Aspergillus niger) (protein, strain yEdQ745) DELAYSPPYYPSPWANGQGDWAQAYQRAVDIVSQMTLDEKVNLTTGTGWELELCVGQTGGVPRLGVPGMCLQDSPLGVRDSDYNSAFPAGMNVAATWDKNLAYLRGKAMGQEFSDKGADIQLGPAAGPLGRSPDGGRNWEGFSPDPALSGVLFAETIKGIQDAGVVATAKHYIAYEQEHFRQAPEAQGFGFNISESGSANLDDKTMHELYLWPFADAIRAGAGAVMCSYNQINNSYGCQNSYTLNKLLKAELGFQGFVMSDWAAHHAGVSGALAGLDMSMPGDVDYDSGTSYWGTNLTISVLNGTVPQWRVDDMAVRIMAAYYKVGRDRLWTPPNFSSWTRDEYGYKYYYVSEGPYEKVNQYVNVQRNHSELIRRIGADSTVLLKNDGALPLTGKERLVALIGEDAGSNPYGANGCSDRGCDNGTLAMGWGSGTANFPYLVTPEQAISNEVLKHKNGVFTATDNWAIDQIEALAKTASVSLVFVNADSGEGYINVDGNLGDRRNLTLWRNGDNVIKAAASNCNNTIVVIHSVGPVLVNEWYDNPNVTAILWGGLPGQESGNSLADVLYGRVNPGAKSPFTWGKTREAYQDYLVTEPNNGNGAPQEDFVEGVFIDYRGFDKRNETPIYEFGYGLSYTTFNYSNLEVQVLSAPAYEPASGETEAAPTFGEVGNASDYLYPSGLQRITKFIYPWLNGTDLEASSGDASYGQDSSDYLPEGATDGSAQPILPAGGGPGGNPRLYDELIRVSVTIKNTGKVAGDEVPQLYVSLGGPNEPKIVLRQFERITLQPSEETKWSTTLTRRDLANWNVEKQDWEITSYPKMVFVGSSSRKLPLRASLPTVH",Km,[1],640 ± 60 µM
same,Vmax,[1],4.17 µmol/min/mg
same,kcat,[1],8.34 s⁻¹
same,kcat/Km,[1],13000 M⁻¹ s⁻¹
same,Km,[2],1450 ± 290 µM
same,Vmax,[2],4.36 µmol/min/mg
same,kcat,[2],8.72 s⁻¹
same,kcat/Km,[2],6010 M⁻¹ s⁻¹

# From patent US10077436B2, “Beta-glucosidase enzymes for increased biomass saccharification” (Edeniq, Inc., priority 2013, dated 2018)
